Measured values reported in the supplement of paper PMC9170038.

Tested on: MS2 coat protein
Assay: apparent KD of MS2 coat protein; designed switch direction (-1 OFF switch, 1 ON switch): -1; higher = weaker reporter binding
Procedure, shortened: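 The reported apparent KD is a per-design median over clusters, from curve fits of normalised cluster fluorescence. Protein titrations used SNAP-549-labelled MS2 coat protein, doubled from 0.7 or 1.5 nM to 3 µM, in Tris-HCl pH 7.5 buffer with KCl, MgCl2, BSA, DTT, tRNA and Tween-20, with no input, 200 uM small-molecule ligand, or an oligonucleotide input. The RNA switches were transcribed on Illumina chips by stalled E. coli RNA polymerase.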

[1] = Eterna round: R95, input ligand: FMN 200 uM
[2] = Eterna round: R95, input ligand: microRNA oligo, concentration not stated
[3] = Eterna round: R95, input ligand: none
[4] = input ligand: microRNA oligo, concentration not stated

Sequence	apparent KD of MS2 coat protein [2] [nM]	apparent KD of MS2 coat protein (input ligand: FMN 200 uM) [nM]	apparent KD of MS2 coat protein (input ligand: none) [nM]	apparent KD of MS2 coat protein [4] [nM]	other results
GAGAAUUCAUAGGAUAUCGUAUGGAUAAUUUAACGAGAAGGAUGAACAUGAGGAUCACCCAUGUGGUAUCAUGG [salish99_ex6_r3_002] (puzzle: Exclusion 6)	87.5				apparent KD of MS2 coat protein [1]: 83.5 nM; apparent KD of MS2 coat protein [3]: 95 nM
UCGUGAUUAGAGGAUAUAUUUUGAGUCAGAACAAUAGAAGGCUAAACAUGAGGAUCACCCAUGUAAAUGUGUAA [JR_Ex6_Sub061] (Eterna round: R97, puzzle: Exclusion 6)		184	34.9		
CAUUGACAUGAGGAUCACCCAUGUCAGGAUAUGCUUCAUGACACGAAAGUGUCAUGAAGCAGAAGGGACAUGCC [SS1 Omei 1] (puzzle: Exclusion 1)	19.5				
GUUGACUGAUGAGGAUAUUCAUAAGAAUGGGCCUUGGUUUUACAUGAGGAUCACCCAUGUUGACAGAAGAAGGCAUCAGUCUGA [Eternabot solution 28] (Eterna round: R96, puzzle: Exclusion NG 2)		659	109	120	
GUUGUUUAUGUAGGAUAUGCCUGGCGUGCCUUUGCAGAAGGACAUGAGGAUCACCCAUGUAUUGCGGUCUGCGUUCAGAUCGCU [salish99_ExNG1_r4_022] (Eterna round: R96, puzzle: Exclusion NG 1)		45.6	34.8	26.2	
AAAUCGGAGGAGGAUAUUGUACAGGAAACGGUGCGAGAAGGUUUCACAUGAGGAUCACCCAUGUCAAAUAGCGA [EX6 #57] (Eterna round: R97, puzzle: Exclusion 6)		21.3	21.2		
UUUUUAGUGCUUUUUAAGUACAUGAGGAUCACCCAUGUACUUGUCUGGUGGUCCGGACAAGCUUUUUGCUCGUCUAG [Sensor v3 - turn-off variant 1 - 3] (Eterna round: R96, puzzle: Sensor v3, turn-off variant 1)		35.6	35.8	27.4	
GCAGCAUAGUUUACUAACUGUUACAUGAGGAUCACCCAUGUUUAGGAUAUGGUCUGGAUUACAGGCCAGAAGGGAACAAGCUGC [Eli exng3 - 032] (Eterna round: R96, puzzle: Exclusion NG 3)				10.3	
ACAGCGUGAGGAUAUACAUGAGGAUCACCCAUGUAUGGCAGGUUAUCCUGUCGUGAGUGUAGAAGGCACGCUGU [Exclusion 3 - Oddities v.5 ( A small slide from ms2 to fmn)] (puzzle: Exclusion 3)	15.4				
UUUUUAUAUGAAGGAUAUACUUAACAUGAGGAUCACCCAUGUGGUGUUGUGAGUGAGUGAGUUUAGUAGAAGGUCAAUUAGCUU [JMF's solution 100] (Eterna round: R96, puzzle: Exclusion NG 2)		330	342	185	
GGCAUAAUGUAGGAUAUCGUAUUGGAAACAAUACGAGAAGGGCAAACAUGAGGAUCACCCAUGUUCCUUAAGCC [Mat - Exclusion 6 - Eli Mod - D71] (puzzle: Exclusion 6)	15.1				
AGCCCUUGUGUCAGGAUAUGCAUCCUUAAUGGACGGCAGAAGGGACAUGAGGAUCACCCAUGUAAAUAGAAAAU [Sodixeti] (puzzle: Brourd's mod of Exclusion 4)	111				apparent KD of MS2 coat protein [1]: 30.1 nM; apparent KD of MS2 coat protein [3]: 177 nM
GGUGAAGCAGGAUAUGUAUCGAUAUACAUGAGGAUCACCCAUGUCAUGUACAAAUUGCAUAUAGAAGGGCUUCACC [Exclusion 5 (FMN-MS2 slide v.4)] (Eterna round: R97, puzzle: Exclusion 5)		168	47.4		
ACAAAGCGAGGAUAUACACAGGUGUCCUGGGCGUCAAAUCGACAUGAGGAUCACCCAUGUAGAAGGCGCAAUAG [Diedated] (Eterna round: R97, puzzle: Exclusion 2)		44.9	36.9		
AUAAAGAAUGUUAGGAUAUUGGUGAAUAGGCUGACUAAGAAGGAACAUGAGGAUCACCCAUGUAACAUGGAAAA [Tiinzaesqu] (puzzle: Brourd's mod of Exclusion 4)	24.5				apparent KD of MS2 coat protein [1]: 68.8 nM; apparent KD of MS2 coat protein [3]: 33.6 nM
GUAAAGGUAGGAUAUACGAAGAAAAAGGGUAGAAGAAAAACACAUGAGGAUCACCCAUGUAGAAGGACCAAAUG [Mat - Exclusion 2 - Mod of my Tesla design - D3] (puzzle: Exclusion 2)	28.6				apparent KD of MS2 coat protein [1]: 77.6 nM; apparent KD of MS2 coat protein [3]: 34 nM
CACCGUUACGUAGGAUAUAGUACAUGAGGAUCACCCAUGUAAUAAAUGAGAAUUUCGGAUGUAUGCUAGAAGGACGAAAUCGGC [Ostricism 50 - Jieux - Exclusion NG 2] (Eterna round: R96, puzzle: Exclusion NG 2)				39.9	
CCUCAGUCACAGGAUAUGCUCAUCUAAUGAUGAGCAGAAGGGUGAACAUGAGGAUCACCCAUGUUUACCAGGGU [Omei Ex6 E5] (Eterna round: R97, puzzle: Exclusion 6)		36	161		
GGUGGACAUGAGGAUCACCCAUGUGAGGAUAUCGGCUGGCUAGCGGCGGACGGCUUCUCGAGAAGGCGCAUUGU [Exclusion 1 V83] (puzzle: Exclusion 1)	46.3				
UACACCGCAUGAGGAUCAAACAUGAGGAUCACCCAUGUGUAGCAAGCUUUUUGCUCGUCUUAUAAAUAUGUGGUGUA [Electric Eye 9 - Jieux - Sensor, turn-off variant 1] (Eterna round: R97, puzzle: Sensor, turn-off variant 1)		12.6	13		
CGGAUGUGAGGAUAUACAUGAGGAUCACCCAUGUGUGCCAGCUAGCUGACUGGCACUUGUAGAAGGCACGUCUG [JL-ex3-2.14 Brourd mod] (puzzle: Exclusion 3)	11.1				
AUGUACCGGUGAGGAUAUUUUUAAUAGAGCUUUAUGAUAUACAUGAGGAUCACCCAUGUUACUUUAAAGAAGGCAUCGGAUUAA [Mat - Exclusion NG 2 - Mod of JL - D90] (Eterna round: R96, puzzle: Exclusion NG 2)				12.8	
UGAGUGCUGCGAGGAUAUACAUGAGGAUCACCCAUGUAAACCUGUGAGGCUUUGCCUCACAGGAUGUAGAAGGCGCAGUACUCU [JL ENG2 1.16] (Eterna round: R96, puzzle: Exclusion NG 2)		15.5	13.2	9.94	
